Laboratory results from the supplement of paper PMC10567573.

B1: DCTD (parent)
chain: VKGCSMYVALFPCNECAKLIIQAG
B2: DYRK1B (parent)
chain: RFQDLVLRMLEYEPAARISPLGAL

Variants of: B1
Assay: protein stability index of a GFP-peptide fusion (GPS, HEK-293T) (PSI 1-6); higher = more stable
Details: c terminus: a fixed tail appended
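Note: lentivirally expressed fusions sorted by FACS into six bins by GFP to DsRed ratio, PSI derived from sequencing read proportions per bin multiplied by bin number.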

Protein stability index of substitutions, site by site:
K18: S 4.23; W 1; I 1.99; C 4.05; V 4.91; L 1.05; H 2.55
E15: I 3.06; H 3.15; W 4.68; Q 2.62; V 1.31; N 2.17; G 3.97
M6: N 2.2; S 2.46; C 2.7; E 2.2; H 2.21; D 1.7; I 3.81; R 1.58; Q 3.17; L 4.51; Y 2.7; A 3.35; T 2.33
V8: S 2.3; L 1.94; G 1.28; H 2.37; Y 3.08; T 2.19; A 2.64; W 1.9; M 2.92; E 1.75; F 3.62; C 1.9; N 1.49; D 1.62; K 3.21; Q 4.51; P 2.22
L10: A 2.48; S 2.2; Q 3.35; P 3.06
C16: N 5.28; M 3.57; K 5.31
C13: E 2.59; P 1.7
A17: N 3.32; T 3.02; I 3.08; Q 3.48; H 3.41
N14: P 2.04; M 2.9; F 2.99; K 1.92
G3: Q 3.85; M 4.03; C 2.07; V 2.23; I 3.94; Y 4.09; P 4.11; A 2.9; D 3.8; K 2.53; W 4.42; F 2.27; N 3.06; T 3.43
V1: H 1.54; M 3.04; S 3.18; K 3.98; E 2.15; W 2.09; F 3.94; I 2.68; C 2.61; P 2.74; T 3.12; A 1.7; G 3.72
L19: M 2.14; F 3.88; W 2.99; E 5.26; D 2.4; T 2.23; C 3.04
I20: H 2.4
A9: F 3.38; W 1.94; C 2.79; L 3.68; G 3.16
I21: D 3.77
C4: V 2.86; I 2.89; P 1.75; E 1.71; R 3.18; L 2.78; T 2.88; S 3.15; F 2.92; A 2.19
K2: T 3.52; S 3.47; R 2.54; V 4.19; P 2.71; F 2.27; H 2.42; W 3.93; D 2.7
Y7: W 2.92; H 1.78; A 2.65; M 4.09; C 2.84; F 2.5; I 3.49; L 4.45; T 1.91; D 1.68
P12: R 2.9; Q 1.81; T 2.86; N 3.57; G 2.57; V 4.55
F11: C 3.11; S 2.83; Y 2.95; D 4.47
S5: C 1.73; E 3.58; W 3.75; P 3.12; Y 1.87; N 2.91; D 2.2; K 2.44; F 2.58; M 1.55; H 3.63

Variants of: B2
Assay: as above
Details: c terminus: a fixed tail appended

Protein stability index, by site and new letter:
L24: T 4.33; F 1.95; G 1.35; S 2.08; C 2.82; A 2.93; N 1.82; D 2.29; H 2.36; K 1.31; P 1.6; Q 2.27; I 4.35; E 2.36
P14: F 2.87; E 2.21; I 1.72; N 1.45; L 5.01
P20: C 3.75; N 3.12; V 3.27; T 2.1; Q 2.29; I 2.64; E 2.84; G 2.01; W 3.32; S 2.53; Y 4.39; F 2.2
L10: A 3.32; I 1.96; Q 1.6; H 1.17; P 2.37; E 1.27; G 1.66; T 2.19; M 2.05; D 1.92; N 1.64
Y12: E 1.05; G 1.6; M 2.22; N 1.65; W 2.82; V 3.06; S 2.61; Q 1.44; D 1.99; T 1.04; P 2
E13: T 4.09; N 2.11; D 3.04; W 3.37; A 2.87; Q 3.79; H 1.76; S 2.48; F 2.32; P 3.05; Y 3.29; R 1.34; G 1.82; L 2.27
S19: Q 1.55; A 1.17; L 4.05; P 2.61; Y 3.82; D 1.76; E 3.96; K 3.06; G 1.07; V 2.91; R 2.38
A16: F 1.02; N 3.65; P 1.44; E 1.36; T 2.28; K 2.35; C 3.04; M 1.85
A15: W 5.07; Q 2.04; K 3.43; R 3.6; H 5.14; F 1.95; Y 2.03; P 2.8; M 2.57
G22: F 2.04; V 3.1; L 2.02; C 1.86; D 2.68; K 2.67; E 3.2; T 3.41; I 2.49; Y 1.71; A 2.95; M 2.2; W 2.76; H 1.52
M9: K 1.53; L 2.7; R 1.86; D 3.29; G 1.33; S 1.09; N 2.33; H 2.78; F 2.77; E 1.98; T 1.83
I18: H 1.23; D 1.65; A 1.41; R 1.15; M 2.17; Q 2.04; S 2.1; G 1.27; E 2.06; T 1.3; L 2.33; N 1.23; F 2.3; P 1.98
E11: P 3.04; Q 2.81; T 3.67; M 3.73; L 2.25; A 1.56; H 2.96; N 2.21; V 3.51; R 2.66; Y 3.21
R17: S 2.69; Y 3.04; T 1; N 1.46; D 1.91; C 2.25; M 4.29; F 1.77; P 2.75; I 4.01; G 2.29
L21: F 1.36; S 2.27; T 2; I 2.48; Y 2.98; R 1.77; P 1.93; M 1.68; D 1.78; C 1.98; H 3.73; V 2.56; A 1.75; E 1.56; K 1.19
A23: G 2.75; R 2.45; H 2.52; Q 2.06; Y 2.71; D 1.42; T 2.04; F 1.59; K 1.29; M 2.25
